From PMC5167779

Legend:
[1] = target: XfYgiT, antitoxin of the toxin-antitoxin system of Xylella fastidiosa subsp. pauca strain 9a5c (Xylella fastidiosa subsp. pauca strain 9a5c); assay: SEC
[2] = target: XfYgiT, antitoxin of the toxin-antitoxin system of Xylella fastidiosa subsp. pauca strain 9a5c (Xylella fastidiosa subsp. pauca strain 9a5c); assay: AUC
[3] = target: XfYgiT, antitoxin of the toxin-antitoxin system of Xylella fastidiosa subsp. pauca strain 9a5c (Xylella fastidiosa subsp. pauca strain 9a5c); assay: ITC
[4] = target: XfYgiT, antitoxin of the toxin-antitoxin system of Xylella fastidiosa subsp. pauca strain 9a5c (Xylella fastidiosa subsp. pauca strain 9a5c); assay: SEC; […], sodium phosphate buffer ([…]

## XfMqsR, toxin of the toxin-antitoxin system of Xylella fastidiosa subsp. pauca strain 9a5c (natural protein)
[1]
  stoichiometry N (mol/mol (printed as 1:1)): 1
[2]
  stoichiometry N (mol/mol (printed as 2:2)): 1
[3]
  dH: -8.61 kcal/mol
  stoichiometry N (mol/mol (printed as 1:1)): 1

## XfYgiT, antitoxin of the toxin-antitoxin system of Xylella fastidiosa subsp. pauca strain 9a5c (natural protein)
[2]
  stoichiometry N: 2
[4]
  stoichiometry N: 2
